{"source": "paper doi:10.1101/2020.10.02.324624", "target": "AmvR (Acinetobacter baumannii ATCC17978)", "experiment": "SEC"}
{"substance": "AmvR (natural protein)", "values": [{"measurement": "stoichiometry N", "result": 2}]}
